Measured values from publication PMC10807135 (ACS chemical biology, 2023).
Read-outs that look alike come from different tables or passages of the source. One block for each binder: values may come before it.

How the values were obtained:
PltF Q438R D263K A230R = molecular target: T1, PltF Q438R D263K A230R (Pseudomonas fluorescens, UniProt Q4KCY5 1-498, Q438R | D263K | A230R); test: NMR titration
T1 sequence: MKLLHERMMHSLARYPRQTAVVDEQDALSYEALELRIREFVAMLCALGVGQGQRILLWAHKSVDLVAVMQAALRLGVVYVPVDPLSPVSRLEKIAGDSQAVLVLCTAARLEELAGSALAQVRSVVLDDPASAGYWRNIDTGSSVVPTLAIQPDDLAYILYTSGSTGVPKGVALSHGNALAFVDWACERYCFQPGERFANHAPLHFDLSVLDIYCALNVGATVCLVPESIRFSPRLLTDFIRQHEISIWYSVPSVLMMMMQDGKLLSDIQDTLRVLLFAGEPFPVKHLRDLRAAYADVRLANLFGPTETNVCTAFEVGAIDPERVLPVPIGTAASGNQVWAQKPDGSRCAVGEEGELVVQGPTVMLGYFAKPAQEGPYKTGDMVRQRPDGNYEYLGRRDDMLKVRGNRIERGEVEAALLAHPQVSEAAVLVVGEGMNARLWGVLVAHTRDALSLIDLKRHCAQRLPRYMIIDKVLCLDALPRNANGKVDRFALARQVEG

[1] = molecular target: holo-AcpP (E. coli acyl carrier protein AcpP with phosphopantetheine) (Escherichia coli) (UniProt P0A6A8)
[2] = molecular target: holo-AcpP (E. coli acyl carrier protein AcpP with phosphopantetheine) (Escherichia coli) (UniProt P0A6A8); remark: listed apart in the source

binding result (PltF Q438R D263K A230R): binds
B1: desulfo-AcpP (15N-labelled E. coli acyl carrier protein AcpP loaded with a desulfo-PPant mimic) (natural protein, Escherichia coli)
chain: STIEERVKKIIGEQLGVKQEEVTNNASFVEDLGADSLDTVELVMALEEEFDTEIPDEEAEKITTVQAAIDYINGHQA
modifications: desulfo-phosphopantetheine (desulfo-PPant mimic) loaded onto apo-AcpP; uniform 15N labelling

turnover rate of AcpP prolylation (time course, HPLC) [1]: 0.264 AcpP h^-1
B2: PltF Q438R (enzyme)
chain: MKLLHERMMHSLARYPRQTAVVDEQDALSYEALELRIREFVAMLCALGVGQGQRILLWAHKSVDLVAVMQAALRLGVVYVPVDPLSPVSRLEKIAGDSQAVLVLCTAARLEELAGSALAQVRSVVLDDPASAGYWRNIDTGSSVVPTLAIQPDDLAYILYTSGSTGVPKGVALSHGNALAFVDWACERYCFQPGERFANHAPLHFDLSVLDIYCALNVGATVCLVPESIAFSPRLLTDFIRQHEISIWYSVPSVLMMMMQDGDLLSDIQDTLRVLLFAGEPFPVKHLRDLRAAYADVRLANLFGPTETNVCTAFEVGAIDPERVLPVPIGTAASGNQVWAQKPDGSRCAVGEEGELVVQGPTVMLGYFAKPAQEGPYKTGDMVRQRPDGNYEYLGRRDDMLKVRGNRIERGEVEAALLAHPQVSEAAVLVVGEGMNARLWGVLVAHTRDALSLIDLKRHCAQRLPRYMIIDKVLCLDALPRNANGKVDRFALARQVEG

turnover rate of AcpP prolylation (time course, HPLC) [2]: 1.98 AcpP h^-1
B3: PltF Q438R K472R D263N (enzyme)
chain: MKLLHERMMHSLARYPRQTAVVDEQDALSYEALELRIREFVAMLCALGVGQGQRILLWAHKSVDLVAVMQAALRLGVVYVPVDPLSPVSRLEKIAGDSQAVLVLCTAARLEELAGSALAQVRSVVLDDPASAGYWRNIDTGSSVVPTLAIQPDDLAYILYTSGSTGVPKGVALSHGNALAFVDWACERYCFQPGERFANHAPLHFDLSVLDIYCALNVGATVCLVPESIAFSPRLLTDFIRQHEISIWYSVPSVLMMMMQDGNLLSDIQDTLRVLLFAGEPFPVKHLRDLRAAYADVRLANLFGPTETNVCTAFEVGAIDPERVLPVPIGTAASGNQVWAQKPDGSRCAVGEEGELVVQGPTVMLGYFAKPAQEGPYKTGDMVRQRPDGNYEYLGRRDDMLKVRGNRIERGEVEAALLAHPQVSEAAVLVVGEGMNARLWGVLVAHTRDALSLIDLKRHCAQRLPRYMIIDRVLCLDALPRNANGKVDRFALARQVEG
